This note sets out measurements from patent US20210332138A1 (1GLOBE BIOMEDICAL, published 2021).

Assay [1] has as its target T1, Rhesus PDL1-GFP (expression construct transiently transfected into 293T cells) (Rhesus, UniProt F6VEW6 19-290).
T1 construct: whole, on cells; not shown: GFP fused to PDL1
Kind of assay: FACS on 293T cells transiently transfected with Rhesus PDL1-GFP. How it is done: (A) 293T cells were transiently transfected with Rhesus PDL1-GFP expression construct. Embodiments 4-1E8, 3-1E4 and 3-1B11 were tested and compared to control.

Assay [2] has as its target T2, Rhesus PDL1 (expression construct transiently transfected into 293T cells) (Rhesus, UniProt F6VEW6 19-290).
T2 construct: whole, on cells
Briefly: FACS on 293T cells transiently transfected with Rhesus PDL1. How it is done:
(B) 293T cells were transiently transfected with Rhesus PDL1 expression construct. Embodiments 4-1E8, 3-1E4 and 3-1B11 were tested and compared to control.

T1 sequence (chain, as listed by the source): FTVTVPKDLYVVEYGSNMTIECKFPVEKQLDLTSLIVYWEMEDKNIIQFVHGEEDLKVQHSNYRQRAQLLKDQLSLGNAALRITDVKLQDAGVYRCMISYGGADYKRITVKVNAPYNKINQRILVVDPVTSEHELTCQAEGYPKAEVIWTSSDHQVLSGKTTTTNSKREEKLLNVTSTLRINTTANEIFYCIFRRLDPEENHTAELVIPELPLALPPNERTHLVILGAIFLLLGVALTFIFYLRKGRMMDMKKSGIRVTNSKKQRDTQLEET

B1: full-length antibody 3-1B11 (antibody, human IgG1, V domains shown)
VH: EVQLVESGGGLVQPGGSLRLSCAASGFTFSDYDMIWVRQAPGKGLEWVAVISYDGSNKYYADSVKGRFTISRDNSKNTLYLQMNSLRAEDTAVYYCAKEFFGAFDIWGQGTMVTVSS
VL: SSELTQDPAVSVALGQTVTITCQGDSLNYYYANWFQLKPGQAPVLVLFGKNNRPSGIPDRFSGSYSGSTASLTITGAQAEDDADYYCNSRDSGGNPWVFGGGTKLTVL
notes: Tested as a full-length antibody; the summary speaks of human IgG1
Take B1: the binding result in assay [1] and in assay [2] was “binds” throughout.

B2: full-length antibody 4-1E8 (antibody, human IgG1, V domains shown)
VH: QIQLVQSGAEVKMPGASVTISCEASGYNFISYYIHWVRQAPGQGLEWMGFVVPSGGAAGYTQKFQGRLTVTRDTSTSTVYMDLNSLTSDDTAVYYCVREMSGGWFDFWGQGTLVTVSS
VL: DIVMTQSPSSLSASVGDRVTITCRASQGIRNDLGWYQQKPGKAPKLLIYAASTLQSGVPSRFSGSGSGTDFTLTISSLQAEDVAVYYCQQYYSTPLTFGPGTKVDIK
notes: Tested as a full-length antibody made from the scFv's VH and VL in 293T cells; the summary speaks of a human IgG1 constant region, and ADCC activity is reported
Regarding B2, the binding result in assay [1] and in assay [2] was “binds” throughout.

B3: full-length antibody 3-1E4 (antibody, human IgG1, V domains shown)
VH: QIQLVQSGAEVKKPGSSVKVSCKASGGTFSSYAISWVRQAPGQGLEWMGGIIPIFGTANYAQKFQGRVTITADKSTSTAYMELSSLRSEDTAVYYCAGGGAVADNSYWGQGTLVTVSS
VL: DIRMTQSPSSLSASVGDRVTITCRASQGIRNDLGWYQQKPGKAPKLLIYAASSLQSGVPSRFSGSGSGTDFTLTISSLQPEDFATYYCLQDYNYPRTFGQGTKVEIK
notes: as for B1
Regarding B3, the binding result in assay [1] and in assay [2] was “binds” in each case.
